The record followed here is article PMC7360590, “Structural basis of SALM3 dimerization and synaptic adhesion complex formation with PTPσ” (Scientific Reports, 2020).

The target in series [1] is purified SALM3 Thr354Arg-Glu359Ala mutant protein (mouse). Description: not stated; oligomeric state in solution of purified SALM3 double mutants against the wild type (Supplementary Fig. S8).
Series [2] concerns the target purified SALM3 Leu282Arg-Arg285Ala mutant protein (mouse). Described as above.
For series [3], the target named is T1, PTPσ-Fc fusion protein, B0V2N1.
T1 chain: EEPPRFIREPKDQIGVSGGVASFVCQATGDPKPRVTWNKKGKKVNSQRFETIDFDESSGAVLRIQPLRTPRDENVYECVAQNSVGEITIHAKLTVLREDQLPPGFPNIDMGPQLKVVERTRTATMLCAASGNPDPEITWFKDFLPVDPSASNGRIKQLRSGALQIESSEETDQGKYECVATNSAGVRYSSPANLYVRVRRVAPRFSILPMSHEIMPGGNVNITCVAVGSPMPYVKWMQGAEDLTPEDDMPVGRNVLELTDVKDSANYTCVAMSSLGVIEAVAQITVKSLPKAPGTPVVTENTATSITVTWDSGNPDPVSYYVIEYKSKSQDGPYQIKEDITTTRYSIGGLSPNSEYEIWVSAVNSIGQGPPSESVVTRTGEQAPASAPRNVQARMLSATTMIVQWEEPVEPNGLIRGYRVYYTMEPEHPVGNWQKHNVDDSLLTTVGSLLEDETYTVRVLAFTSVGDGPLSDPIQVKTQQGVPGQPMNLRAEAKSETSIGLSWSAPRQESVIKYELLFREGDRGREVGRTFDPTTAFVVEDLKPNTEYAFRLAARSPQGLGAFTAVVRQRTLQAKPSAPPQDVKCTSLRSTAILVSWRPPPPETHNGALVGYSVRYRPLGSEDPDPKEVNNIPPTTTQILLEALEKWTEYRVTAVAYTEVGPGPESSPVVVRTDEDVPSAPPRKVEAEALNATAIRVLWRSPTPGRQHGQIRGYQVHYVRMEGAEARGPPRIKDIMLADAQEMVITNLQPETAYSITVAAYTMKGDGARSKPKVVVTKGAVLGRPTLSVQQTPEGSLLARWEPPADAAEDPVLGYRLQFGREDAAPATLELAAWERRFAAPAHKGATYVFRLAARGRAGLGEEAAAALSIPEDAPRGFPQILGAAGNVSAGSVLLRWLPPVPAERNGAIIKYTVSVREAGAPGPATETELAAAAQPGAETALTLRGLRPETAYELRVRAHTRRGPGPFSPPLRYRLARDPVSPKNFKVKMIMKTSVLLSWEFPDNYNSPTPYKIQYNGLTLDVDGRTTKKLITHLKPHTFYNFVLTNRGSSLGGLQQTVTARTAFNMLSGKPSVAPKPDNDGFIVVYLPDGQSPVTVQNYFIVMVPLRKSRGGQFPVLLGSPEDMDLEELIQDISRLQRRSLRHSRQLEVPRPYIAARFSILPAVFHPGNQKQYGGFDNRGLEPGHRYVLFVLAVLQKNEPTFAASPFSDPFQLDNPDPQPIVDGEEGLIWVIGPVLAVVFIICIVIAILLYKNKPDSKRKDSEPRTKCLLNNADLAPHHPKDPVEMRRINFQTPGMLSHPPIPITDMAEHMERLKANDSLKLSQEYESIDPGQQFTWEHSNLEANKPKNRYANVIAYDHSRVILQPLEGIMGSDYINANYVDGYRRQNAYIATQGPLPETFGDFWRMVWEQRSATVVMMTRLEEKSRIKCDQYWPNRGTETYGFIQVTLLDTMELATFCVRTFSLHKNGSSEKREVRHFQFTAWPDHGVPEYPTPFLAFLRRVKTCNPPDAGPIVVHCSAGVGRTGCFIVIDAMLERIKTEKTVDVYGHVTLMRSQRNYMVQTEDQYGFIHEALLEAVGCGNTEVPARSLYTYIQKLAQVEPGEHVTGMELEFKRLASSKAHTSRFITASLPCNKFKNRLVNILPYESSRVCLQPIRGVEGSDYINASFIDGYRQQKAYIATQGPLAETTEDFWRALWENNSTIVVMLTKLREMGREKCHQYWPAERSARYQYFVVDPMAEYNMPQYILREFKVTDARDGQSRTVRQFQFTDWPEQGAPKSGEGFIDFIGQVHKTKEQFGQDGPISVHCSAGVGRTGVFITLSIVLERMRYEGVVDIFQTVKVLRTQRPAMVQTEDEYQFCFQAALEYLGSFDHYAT
Briefly: in-cell western cell binding assay. The following applies: chain shown with the change; 150 nM PTPσ-Fc; SALM3 expressed on the surface of HEK293T cells; parent: est. 49000; read off a plot.

Series [4] concerns the molecule itself. Briefly: SEC-MALS; SEC–MALLS; Superdex 75 10/300, 0.5 ml/min, 20 mM Tris pH 7.4, 150 mM NaCl; 100 µL injected at 1.5 mg/ml (conditions told for the LRR construct). (In general: SEC sorts molecules by how far they enter the pores of the column.)

In general, stoichiometry N refers to the number of molecules, sites or subunits per partner or assembly. Regarding “purified SALM3 Thr354Arg-Glu359Ala mutant protein (domain or fragment)”, in series [1], the stoichiometry N was 2.

Regarding “purified SALM3 Leu282Arg-Arg285Ala mutant protein (domain or fragment)”, the stoichiometry N in series [2] was found to be 2.

B1: mouse SALM3 LRR-Ig-Fn (residues 17–510), wild type, displayed on HEK293T cells, Q80XU8 L282R; R285A (protein)
chain: CPLPCVCQNLSESLSTLCAHRGLLFVPPNVDRRTVELRLADNFIQALGPPDFRNMTGLVDLTLSRNAITRIGARSFGDLESLRSLHLDGNRLVELGSSSLRGPVNLQHLILSGNQLGRIAPGAFDDFLDSLEDLDVSYNNLRQVPWAGIGSMPALHTLNLDHNLIDALPPGVFAQLSQLSRLDLTSNRLATLAPDPLFSRGRDAEASPSPLVLSFSGNPLHCNCELLWLRRLARPDDLETCASPPTLAGRYFWAVPEGEFSCEPPRIAAHTQRLWVLEGQRATLRCRALGDPVPTMHWVGPDDRLVGNSSRAWAFPNGTLEIGVTGAGDAGAYTCIATNPAGEATARVELRVLALPHGGNTSAEGGRPGPSDIAASARTAAEGEGTLESEPAVQVTEVTATSGLVSWGLGRPADPVWMFQIQYNSSEDETLIYRIVPASSHHFLLKHLVPGADYDLCLLALSPAAGPSDLTATRLLGCAHFSTLPATPLCHALQ
As for B1, in series [3], the response came out at 2500.

B2: mouse SALM3 LRR-Ig-Fn (residues 17–510), wild type, displayed on HEK293T cells, Q80XU8 R107S; Q131A (protein)
chain: CPLPCVCQNLSESLSTLCAHRGLLFVPPNVDRRTVELRLADNFIQALGPPDFRNMTGLVDLTLSRNAITRIGARSFGDLESLRSLHLDGNSLVELGSSSLRGPVNLQHLILSGNALGRIAPGAFDDFLDSLEDLDVSYNNLRQVPWAGIGSMPALHTLNLDHNLIDALPPGVFAQLSQLSRLDLTSNRLATLAPDPLFSRGRDAEASPSPLVLSFSGNPLHCNCELLWLRRLARPDDLETCASPPTLAGRYFWAVPEGEFSCEPPLIARHTQRLWVLEGQRATLRCRALGDPVPTMHWVGPDDRLVGNSSRAWAFPNGTLEIGVTGAGDAGAYTCIATNPAGEATARVELRVLALPHGGNTSAEGGRPGPSDIAASARTAAEGEGTLESEPAVQVTEVTATSGLVSWGLGRPADPVWMFQIQYNSSEDETLIYRIVPASSHHFLLKHLVPGADYDLCLLALSPAAGPSDLTATRLLGCAHFSTLPATPLCHALQ
With B2, in series [3], the response stood at 2800.

B3: mouse SALM3 LRR-Ig-Fn (residues 17–510), wild type, displayed on HEK293T cells, Q80XU8 R247A (protein)
chain: CPLPCVCQNLSESLSTLCAHRGLLFVPPNVDRRTVELRLADNFIQALGPPDFRNMTGLVDLTLSRNAITRIGARSFGDLESLRSLHLDGNRLVELGSSSLRGPVNLQHLILSGNQLGRIAPGAFDDFLDSLEDLDVSYNNLRQVPWAGIGSMPALHTLNLDHNLIDALPPGVFAQLSQLSRLDLTSNRLATLAPDPLFSRGRDAEASPSPLVLSFSGNPLHCNCELLWLRALARPDDLETCASPPTLAGRYFWAVPEGEFSCEPPLIARHTQRLWVLEGQRATLRCRALGDPVPTMHWVGPDDRLVGNSSRAWAFPNGTLEIGVTGAGDAGAYTCIATNPAGEATARVELRVLALPHGGNTSAEGGRPGPSDIAASARTAAEGEGTLESEPAVQVTEVTATSGLVSWGLGRPADPVWMFQIQYNSSEDETLIYRIVPASSHHFLLKHLVPGADYDLCLLALSPAAGPSDLTATRLLGCAHFSTLPATPLCHALQ
On to B3, for which, in series [3], the response amounted to 2500.

B4: mouse SALM3 LRR-Ig-Fn (residues 17–510), wild type, displayed on HEK293T cells, Q80XU8 R285A; L305A (protein)
chain: CPLPCVCQNLSESLSTLCAHRGLLFVPPNVDRRTVELRLADNFIQALGPPDFRNMTGLVDLTLSRNAITRIGARSFGDLESLRSLHLDGNRLVELGSSSLRGPVNLQHLILSGNQLGRIAPGAFDDFLDSLEDLDVSYNNLRQVPWAGIGSMPALHTLNLDHNLIDALPPGVFAQLSQLSRLDLTSNRLATLAPDPLFSRGRDAEASPSPLVLSFSGNPLHCNCELLWLRRLARPDDLETCASPPTLAGRYFWAVPEGEFSCEPPLIAAHTQRLWVLEGQRATLRCRAAGDPVPTMHWVGPDDRLVGNSSRAWAFPNGTLEIGVTGAGDAGAYTCIATNPAGEATARVELRVLALPHGGNTSAEGGRPGPSDIAASARTAAEGEGTLESEPAVQVTEVTATSGLVSWGLGRPADPVWMFQIQYNSSEDETLIYRIVPASSHHFLLKHLVPGADYDLCLLALSPAAGPSDLTATRLLGCAHFSTLPATPLCHALQ
With B4, in series [3], the response was 4000.

B5: mouse SALM3 LRR-Ig-Fn (residues 17–510), wild type, displayed on HEK293T cells, Q80XU8 L321A; H313A (protein)
chain: CPLPCVCQNLSESLSTLCAHRGLLFVPPNVDRRTVELRLADNFIQALGPPDFRNMTGLVDLTLSRNAITRIGARSFGDLESLRSLHLDGNRLVELGSSSLRGPVNLQHLILSGNQLGRIAPGAFDDFLDSLEDLDVSYNNLRQVPWAGIGSMPALHTLNLDHNLIDALPPGVFAQLSQLSRLDLTSNRLATLAPDPLFSRGRDAEASPSPLVLSFSGNPLHCNCELLWLRRLARPDDLETCASPPTLAGRYFWAVPEGEFSCEPPLIARHTQRLWVLEGQRATLRCRALGDPVPTMAWVGPDDRAVGNSSRAWAFPNGTLEIGVTGAGDAGAYTCIATNPAGEATARVELRVLALPHGGNTSAEGGRPGPSDIAASARTAAEGEGTLESEPAVQVTEVTATSGLVSWGLGRPADPVWMFQIQYNSSEDETLIYRIVPASSHHFLLKHLVPGADYDLCLLALSPAAGPSDLTATRLLGCAHFSTLPATPLCHALQ
For B5, in series [3], the response came to 2800.

B6: SALM3 LRR-Ig (residues 17–367) (domain or fragment, mouse, UniProt Q80XU8 17-367, looked up)
chain: CPLPCVCQNLSESLSTLCAHRGLLFVPPNVDRRTVELRLADNFIQALGPPDFRNMTGLVDLTLSRNAITRIGARSFGDLESLRSLHLDGNRLVELGSSSLRGPVNLQHLILSGNQLGRIAPGAFDDFLDSLEDLDVSYNNLRQVPWAGIGSMPALHTLNLDHNLIDALPPGVFAQLSQLSRLDLTSNRLATLAPDPLFSRGRDAEASPSPLVLSFSGNPLHCNCELLWLRRLARPDDLETCASPPTLAGRYFWAVPEGEFSCEPPLIARHTQRLWVLEGQRATLRCRALGDPVPTMHWVGPDDRLVGNSSRAWAFPNGTLEIGVTGAGDAGAYTCIATNPAGEATARVELR
notes: SALM3 (LRFN4), mouse, LRR and Ig domains, residues 17-367; also called SALM3 LRR-Ig construct; source: purified
As to B6, the “stoichiometry N” value in series [4] is 2.

B7: Mouse SALM3 LRR (residues 17–284) (domain or fragment, UniProt Q80XU8 17-284, looked up)
chain: CPLPCVCQNLSESLSTLCAHRGLLFVPPNVDRRTVELRLADNFIQALGPPDFRNMTGLVDLTLSRNAITRIGARSFGDLESLRSLHLDGNRLVELGSSSLRGPVNLQHLILSGNQLGRIAPGAFDDFLDSLEDLDVSYNNLRQVPWAGIGSMPALHTLNLDHNLIDALPPGVFAQLSQLSRLDLTSNRLATLAPDPLFSRGRDAEASPSPLVLSFSGNPLHCNCELLWLRRLARPDDLETCASPPTLAGRYFWAVPEGEFSCEPPLIA
modifications: N-glycan at Asn25 (partly visible in one monomer)
notes: SALM3 (LRFN4), mouse, LRR domain, residues 17-284; residues of the Prescission site may remain at the C-terminus after cleavage; also called SALM3 LRR domain; SALM3 LRR construct; not shown: Fc, C-terminal, cleaved
Regarding B7, the “stoichiometry N” value in series [4] was found to be 2.
